From patent publication US20220047631A1 (UNIVERSITY OF CHICAGO, published 2022)
Substitutions are numbered along the chain they refer to. Where no end group is shown, it is not given here. The star is where a group is joined. GalNAc = N-acetyl galactosamine (O-linked to Thr, Tn antigen); Biotin = O=C1N[C@H]2[C@H](CS[C@H]2CCCCC(=O)*)N1

Legend:
[1] = target: T1, Tn-OTS8 peptide ERGT(GalNAc)KPPLEELSGK-biotin, monomer (murine); experiment: flow cytometry of CAR-transduced mouse T cells with biotinylated peptide
T1 construct: also called glycosylated OTS-8 peptide (biotinylated)
T1 peptide: ERGT(GalNAc)KPPLEELSGK(Biotin)

[2] = target: T1, Tn-OTS8 peptide …; experiment: flow cytometry of yeast-displayed clone with 1 or 10 nM Tn-OTS8 peptide
Method: FIG. 20. […] 10 clones were isolated from Tn-OTS8 peptide-sorted post-sort-4 and post-sort-5 populations. Each clone was stained with 1 or 10 nM Tn-OTS8 peptide and analyzed by flow cytometry. The mean fluorescence units (MFUs) of each clone is plotted on Y-axis. […] In addition, plasmid DNA was isolated from each clone to determine the kind of mutation(s), and frequency of mutation(s) (n). The sequence of wild-type (wt) and mutated residues is shown in black and maroon, respectively.

[3] = target: T1, Tn-OTS8 peptide …; experiment: Table 3, column 'Tn-linked antigen' recognized by the scFv
[4] = target: T1, Tn-OTS8 peptide …; experiment: flow cytometry titration of the yeast-displayed mutant with biotinylated OTS8p, 0.1 to 100 nM [A]
[5] = target: T1, Tn-OTS8 peptide …; experiment: dissociation on yeast: 30 nM biotinylated Tn-OTS8 peptide, wash, chase with 100 nM non-biotinylated peptide; % binding over 4 hours [B]
Method: (§1) FIG. 21. […] (B) To determine their off-rates, each mutant was stained with 30 nM biotinylated Tn-OTS8 peptide. After washing, the mutants were stained with 100 nM Tn-OTS8 peptide (not biotinylated). The decrease in binding to biotinylated Tn-OTS8p by each mutant was measured over a period of 4 hours, to calculate approximate half-lives (t_{1/2}) and off-rates (koff). […] See Brooks et al., Proc. Natl. Acad. Sci. (USA) 107(22):10056-10061 (2010).

[6] = target: T1, Tn-OTS8 peptide …; experiment: yeast display, 30 nM biotinylated peptide chased with 100 nM unbiotinylated peptide over 4 hours
Method: as §1

[7] = target: T1, Tn-OTS8 peptide …; experiment: yeast display titration compared with a literature value
[8] = target: T1, Tn-OTS8 peptide …; experiment: dissociation on yeast: 30 nM biotinylated Tn-OTS8 peptide, wash, chase with 100 nM non-biotinylated peptide; sheet adds: 30-fold slower than 237mAb:OTS8p [B]
Method: as §1

[9] = target: T1, Tn-OTS8 peptide …; experiment: yeast display dissociation compared with a literature value
Method: as §1

[10] = target: T1, Tn-OTS8 peptide …; experiment: yeast display, flow cytometry titration with peptide
GTKA = target: T2, GTKA; experiment: ELISA; x axis = coating concentration of the peptide; 237Ab fixed at 10 µg/ml [left]
T2 construct: truncation series from GTKAAAA; also called Tn-peptide GTKA, immobilized (C-terminal truncation)
T2 peptide: Biotin-APLVPTQRERGT(GalNAc)KA

GTK = target: T3, GTK; experiment: as above
T3 construct: truncation series from GTKAAAA; also called Tn-peptide GTK, immobilized (C-terminal truncation)
T3 peptide: Biotin-APLVPTQRERGT(GalNAc)K

Tn-OTS8 peptide tetramer = target: T4, Tn-OTS8 peptide tetramer (murine, UniProt P22629 37-163 (Streptomyces avidinii entry), limits assumed, PE label; GalNAc (Tn) on Thr 4; C-terminal Lys-biotin); experiment: flow cytometry of yeast-displayed clone with 10 nM OTS8p tetramer [B]
T4 construct: How the tetramer was made is not spelled out; streptavidin-PE is the reagent named with it; also called Tn-OTS8p tetramer; tetramers of glycosylated OTS-8 peptide

[11] = target: T5, Tn-OTS8 peptide KAPLVPTQRERGT(GalNAc)KPPLEELSTSATSDHDH (murine, GalNAc (Tn) on the Thr of ...RERGT(GalNAc)KPP...); experiment: ELISA, peptide coated at 2.5 or 5 µg/ml, biotinylated scFv, streptavidin-HRP
T5 construct: Coated on ELISA plates at 2.5 or 5 µg/ml; also called OTS8p with Tn
T5 peptide: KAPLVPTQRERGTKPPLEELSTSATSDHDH

T4 sequence (P22629 37-163 limits assumed): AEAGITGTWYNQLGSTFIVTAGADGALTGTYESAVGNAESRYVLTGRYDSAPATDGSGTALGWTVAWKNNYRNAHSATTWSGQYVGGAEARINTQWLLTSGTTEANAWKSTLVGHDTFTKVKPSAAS

B1: 237-LGQ-CAR on transduced C57BL/6 mouse T cells (other)
scFv: DIQLTQSPLSLPVSLGDQASISCRSSQSLVHSNGNTYLHWYLQKPGQSPKLLIYKVSNRFSGVPDRFSGSGSGTDFTLKISSVEAEDLGVYFCSQSLGQPTFGGGTKLEIKGGGGSGGGGSGGGGSQVQLQQSGGGLVQPGGSMKIFCAASGFTFSDAWMDWVRQSPEKGLEWVAEIRNKANNHETYYAESVKGRFTITRDDSKSRMSLQMNSLRAEDTGIYYCSGGKVRNAYWGQGTTVTVSS
notes: also called CAR with dual specificity (LGQ); not shown: hinge, CD28 and CD3zeta parts of the CAR
Question: Does B1 bind [1]?
Answer: binds

B2: 237-TNGK-CAR on transduced C57BL/6 mouse T cells (other)
scFv: B1 scFv with S96T, L97N, Q99K
notes: also called CAR with dual specificity (TNGK); not shown: hinge, CD28 and CD3zeta parts of the CAR
Question: Does B2 bind [1]?
Answer: binds

B3: --WG (wt: STHV) (scFv)
scFv (VL-linker-VH): B1 scFv with L97T, G98W, Q99G
notes: isolated after sort 4 with Tn-OTS8p; also called clone O4-3
Question: Does B3 bind [2]?
Answer: binds

B4: -VWE (wt: STHV) (scFv)
scFv (VL-linker-VH): B1 scFv with L97V, G98W, Q99E
notes: isolated after sort 5 with Tn-OTS8p; also called clone O5-8
Question: Does B4 bind [2]?
Answer: binds

B5: T-WA (wt: STHV) (scFv)
scFv (VL-linker-VH): B1 scFv with S96T, L97T, G98W, Q99A
notes: isolated after sort 4 with Tn-OTS8p; also called clones O4-1, O4-2, O4-9
Question: Does B5 bind [2]?
Answer: binds

B6: yeast-displayed 237 scFv LGQ mutant (scFv)
scFv: B1 scFv
notes: not shown: yeast display carriers: N-terminal Aga2 and HA tag, C-terminal c-myc tag
Question: Does B6 bind [3]?
Answer: binds

B7: yeast-displayed 237 scFv TNGK mutant (scFv, not shown: large carriers; small tags and cut ends)
scFv: B1 scFv with S96T, L97N, Q99K
Question: Does B7 bind [3]?
Answer: binds

B8: yeast-displayed 237 scFv WE mutant (scFv)
scFv: B1 scFv with L97T, G98W, Q99E
notes: as for B6
Question: With B8 as the binder, how does the Kd [4] read?
Answer: 4.3 nM

Question: And the t1/2 [5]?
Answer: 27 min

Question: What about the “half-life (t1/2)” value [6] of the same binder?
Answer: ~30 min

Question: What about the “fold higher affinity than the 237 IgG Fab domain (literature SPR)” value [7] of the same binder?
Answer: ~30 fold

Question: What about the koff [8] of the same binder?
Answer: 0.00042 s⁻¹

Question: What about the “fold slower off-rate than the 237 monoclonal antibody Fab with OTS8 peptide (literature)” value [9] of the same binder?
Answer: 30 fold

Question: And the Kd [10]?
Answer: ~5 nM

B9: 237 monoclonal antibody (antibody, V domains shown)
VH: QVQLQQSGGGLVQPGGSMKIFCAASGFTFSDAWMDWVRQSPEKGLEWVAEIRNKANNHETYYAESVKGRFTITRDDSKSRMSLQMNSLRAEDTGIYYCSGGKVRNAYWGQGTTVTVSS
VL: DIQLTQSPLSLPVSLGDQASISCRSSQSLVHSNGNTYLHWYLQKPGQSPKLLIYKVSNRFSGVPDRFSGSGSGTDFTLKISSVEAEDLGVYFCSQSTHVPTFGGGTKLEIK
notes: Murine monoclonal IgG
Question: What does the source list for B9?
Answer: binding result (GTKA): no binding (tested: 1000 nM peptide for coating); binding result (GTK): no binding (tested: 1000 nM peptide for coating)

B10: MLV (wt CDRL2: KVS) (scFv)
scFv (VL-linker-VH): B1 scFv with K55M, V56L, S57V, L97T, G98H, Q99V
Question: Does B10 bind (Tn-OTS8 peptide tetramer)?
Answer: no binding (tested: 10 nM)

B11: soluble 237 scFv monomer (biotinylated) (scFv)
scFv: B1 scFv with L97T, G98H, Q99V
modifications: biotin on the C-terminal Avitag
notes: also called monomeric scFv; b237; not shown: N-terminal 6xHis tag; C-terminal Avitag
Question: For B11, which Kd [11] is on record?
Answer: 5 nM
